According to paper PMC12604781 (PLOS Pathogens, 2025):

Legend:
[1] = biological target: SUMO-HSV-1 peptide AB (herpes simplex virus type 1 (HSV-1)); test: ITC
[2] = tested on: pcGAS; type: biochemical, porcine; conditions: pH 7.5
[3] = biological target: hcGAS (Homo sapiens? (human), UniProt Q8N884 1-522); test: EMSA; no US1; EMSA: 2.5 uM ISD45, DNA:protein molar ratio 1:0 to 1:32, 0.8% agarose, 40 mM Tris-HCl pH 9.2 running buffer, 110 V, ethidium bromide; binding buffer and temperature not stated (protein stock 20 mM Tris-HCl pH 7.5, 150 mM NaCl, 5 mM DTT); conditions: protein: recombinant; tags: N-terminal Flag, C-terminal HA; His6-SUMO removed; blunt
[4] = biological target: mcGAS (Mus musculus? (mouse), UniProt Q8C6L5 1-507); test: as above; conditions: protein: recombinant; tags: N-terminal Flag, C-terminal HA; His6-SUMO removed; chain copies: 2; blunt
[5] = biological target: T1, pcGASNT (Sus scrofa? (porcine), UniProt I3LM39 1-134); test: as above; conditions: protein: recombinant; tags: Flag/HA double tag vector; His6-SUMO; blunt
T1 sequence: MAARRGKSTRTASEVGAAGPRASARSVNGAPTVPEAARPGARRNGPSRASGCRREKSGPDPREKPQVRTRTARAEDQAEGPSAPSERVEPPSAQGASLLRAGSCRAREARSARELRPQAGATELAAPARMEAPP

[6] = biological target: T2, pcGASCT (Sus scrofa? (porcine), UniProt I3LM39 145-495); test: as above; conditions: protein: recombinant; tags: Flag/HA double tag vector; His6-SUMO; blunt
T2 sequence: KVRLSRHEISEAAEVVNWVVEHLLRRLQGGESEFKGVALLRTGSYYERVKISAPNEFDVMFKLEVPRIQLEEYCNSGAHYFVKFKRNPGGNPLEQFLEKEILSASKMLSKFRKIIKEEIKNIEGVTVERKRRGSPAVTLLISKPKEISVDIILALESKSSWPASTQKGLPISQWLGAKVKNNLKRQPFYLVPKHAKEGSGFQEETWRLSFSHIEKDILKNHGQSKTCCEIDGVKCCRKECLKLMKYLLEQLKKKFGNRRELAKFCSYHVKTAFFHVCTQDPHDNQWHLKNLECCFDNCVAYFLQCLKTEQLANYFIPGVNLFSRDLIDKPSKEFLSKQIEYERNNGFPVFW

[7] = biological target: T3, pcGAS (Sus scrofa? (porcine), UniProt I3LM39 1-495); test: as above; conditions: protein: recombinant; tags: N-terminal Flag, C-terminal HA; His6-SUMO removed; blunt
T3 sequence: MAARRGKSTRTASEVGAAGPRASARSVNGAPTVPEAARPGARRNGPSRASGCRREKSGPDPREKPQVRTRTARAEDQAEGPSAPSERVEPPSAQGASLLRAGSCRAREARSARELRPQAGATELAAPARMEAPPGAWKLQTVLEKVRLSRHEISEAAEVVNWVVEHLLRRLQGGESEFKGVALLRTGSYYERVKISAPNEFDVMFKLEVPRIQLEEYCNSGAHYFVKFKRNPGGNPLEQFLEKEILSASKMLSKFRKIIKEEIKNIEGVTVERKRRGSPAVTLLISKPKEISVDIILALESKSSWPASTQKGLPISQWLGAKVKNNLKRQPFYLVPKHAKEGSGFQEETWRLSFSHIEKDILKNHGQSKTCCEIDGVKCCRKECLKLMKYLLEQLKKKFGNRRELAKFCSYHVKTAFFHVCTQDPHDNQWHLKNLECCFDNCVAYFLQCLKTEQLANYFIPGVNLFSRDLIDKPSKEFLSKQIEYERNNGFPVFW

[8] = biological target: T4, PRV US1 (pseudorabies virus, UniProt A0AAX7FDV8 1-364); test: EMSA; molar ratio 0-16; EMSA: 2.5 uM ISD45, DNA:protein molar ratio 1:0 to 1:32, 0.8% agarose, 40 mM Tris-HCl pH 9.2 running buffer, 110 V, ethidium bromide; binding buffer and temperature not stated (protein stock 20 mM Tris-HCl pH 7.5, 150 mM NaCl, 5 mM DTT); conditions: protein: recombinant; tags: His6-SUMO removed; blunt
T4 sequence: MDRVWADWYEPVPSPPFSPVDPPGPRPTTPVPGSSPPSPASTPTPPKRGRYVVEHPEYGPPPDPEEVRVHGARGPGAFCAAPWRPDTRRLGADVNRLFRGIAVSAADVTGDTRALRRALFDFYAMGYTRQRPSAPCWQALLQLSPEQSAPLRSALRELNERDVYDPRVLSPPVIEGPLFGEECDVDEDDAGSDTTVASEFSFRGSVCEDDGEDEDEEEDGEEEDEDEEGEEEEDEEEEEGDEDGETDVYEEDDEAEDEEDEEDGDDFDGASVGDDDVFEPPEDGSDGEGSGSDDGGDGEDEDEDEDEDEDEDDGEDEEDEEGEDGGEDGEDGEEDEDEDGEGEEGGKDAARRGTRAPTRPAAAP

hcGAS, sequence (Q8N884 whole entry): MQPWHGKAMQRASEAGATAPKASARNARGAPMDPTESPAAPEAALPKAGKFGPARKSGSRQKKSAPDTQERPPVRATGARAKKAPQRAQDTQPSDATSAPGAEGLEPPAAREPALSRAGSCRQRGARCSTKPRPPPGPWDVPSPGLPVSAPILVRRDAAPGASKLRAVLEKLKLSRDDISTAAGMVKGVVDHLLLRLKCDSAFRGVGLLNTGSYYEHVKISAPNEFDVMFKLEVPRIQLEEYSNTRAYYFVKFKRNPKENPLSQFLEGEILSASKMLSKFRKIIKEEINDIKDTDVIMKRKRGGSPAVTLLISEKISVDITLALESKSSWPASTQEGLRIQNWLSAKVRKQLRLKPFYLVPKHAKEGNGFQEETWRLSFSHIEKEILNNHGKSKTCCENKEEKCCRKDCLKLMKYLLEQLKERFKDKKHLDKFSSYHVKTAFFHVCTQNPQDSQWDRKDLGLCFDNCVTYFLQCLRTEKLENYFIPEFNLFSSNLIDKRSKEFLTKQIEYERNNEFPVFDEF
mcGAS, sequence (Q8C6L5 whole entry): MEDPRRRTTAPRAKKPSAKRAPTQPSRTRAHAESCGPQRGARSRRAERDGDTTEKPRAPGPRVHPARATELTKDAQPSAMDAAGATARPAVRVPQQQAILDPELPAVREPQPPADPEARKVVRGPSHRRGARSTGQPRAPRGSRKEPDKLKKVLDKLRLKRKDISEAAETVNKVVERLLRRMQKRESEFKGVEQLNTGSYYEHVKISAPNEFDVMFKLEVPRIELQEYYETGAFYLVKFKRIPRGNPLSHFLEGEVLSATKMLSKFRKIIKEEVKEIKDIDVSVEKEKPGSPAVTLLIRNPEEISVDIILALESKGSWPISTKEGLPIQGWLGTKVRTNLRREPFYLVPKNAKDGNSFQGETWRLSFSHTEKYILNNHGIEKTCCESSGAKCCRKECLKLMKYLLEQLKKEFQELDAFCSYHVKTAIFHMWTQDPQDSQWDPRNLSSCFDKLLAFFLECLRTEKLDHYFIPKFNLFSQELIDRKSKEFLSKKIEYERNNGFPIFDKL

## hcGAS^CT (C-terminus, catalytic domain of human cGAS) (domain or fragment)
[1]
  Kd: 15.7 µM

## AWKLQT [random peptide]
[2]
  effect on cGAS enzymatic activity / cGAMP synthesis: neither peptide A nor peptide B, nor the random peptide inhibited cGAMP synthesis

## pcGAS^CT (C-terminus, catalytic domain of porcine cGAS) (domain or fragment)
[1]
  Kd: 2.85 µM

B1: ISD45 (dsDNA)
DNA 1: TACAGATCTACTAGTGATCTATGACTGATCTGTACATGATCTACA
DNA 2: TGTAGATCATGTACAGATCAGTCATAGATCACTAGTAGATCTGTA
[3]
  binding result: binds
[4]
  binding result: binds
[5]
  binding result: binds
[6]
  binding result: binds
[7]
  binding result: binds
[8]
  binding result: no binding
